Source: PMC4188261

Molecular target: Burkholderia mallei BmaI1 acyl-homoserine lactone synthase (Burkholderia mallei ATCC23344)
Experiment: steady-state enzyme kinetics

For “octanoyl-acyl carrier protein (E. coli ACP) (from UniProt P0A6A8 1-78) (natural protein)”, which Kd is on record?
Its Kd is 125 nM.
